Results on four substances are retold here after paper PMC2113854.

Test [1] has as its target EGF/TGF-alpha receptor of normal rat kidney (NRK) cells (170-kD receptor species) (rat (endogenous in NRK)). In words: radioligand binding.
Test [2] deals with EGF/TGF-alpha receptor of A431 cells (human (endogenous in A431)) (UniProt P00533). The test is described as follows: radioligand binding.

In test [1], “125I-labeled mouse submaxillary gland epidermal growth factor (125I-EGF) (ligand)” showed a specific binding at 0.3 nM ligand, monolayers not treated with TGF-beta (Fig. 2) of 785 cpm/well.

“125I-labeled transforming growth factor-alpha (125I-TGF-alpha) (from UniProt P01134 39-88) (ligand)”: in test [1], the 125I-TGF-alpha bound with 66 nM TGF-beta (NRK membranes) (fmol/mg protein) was determined as 5.6; the 125I-TGF-alpha bound with 330 nM TGF-beta (NRK membranes) (fmol/mg protein) came to 5.6; the 125I-TGF-alpha bound, no competing ligand (NRK membranes) (fmol/mg protein) came to 5.4; the Kd, high-affinity sites is 0.2 to 0.3 nM. In test [1], this substance gave a Kd, low-affinity sites of 2.7 to 2.9 nM and a specific binding at 0.3 nM ligand, cells not treated with TGF-beta (Fig. 1A) of 810 cpm/well.

Take “mouse submaxillary gland epidermal growth factor (native, unlabeled EGF) (ligand)”: the 125I-TGF-alpha bound with 66 nM EGF (NRK membranes) (fmol/mg protein) in test [1] worked out at 1.6. In test [2], this substance came in with a 125I-TGF-alpha bound with 66 nM EGF (A431 membranes) (fmol/mg protein) of 140.

Regarding “transforming growth factor-alpha (native, unlabeled TGF-alpha) (from UniProt P01134 39-88) (ligand)”, in test [1], the 125I-TGF-alpha bound with 66 nM TGF-alpha (NRK membranes) (fmol/mg protein) turned out to be 1.2.
